# Experimental data reported in patent publication US20210054016.
# Key:
# [1] = test system: T1, H3C2 RNA capping enzyme (Faustovirus D5b) (Faustovirus D5b); settings: pseudouridine in place of U; 5' triphosphate; 37 C, 100 nM enzyme; larger than U counterpart
# T1 sequence: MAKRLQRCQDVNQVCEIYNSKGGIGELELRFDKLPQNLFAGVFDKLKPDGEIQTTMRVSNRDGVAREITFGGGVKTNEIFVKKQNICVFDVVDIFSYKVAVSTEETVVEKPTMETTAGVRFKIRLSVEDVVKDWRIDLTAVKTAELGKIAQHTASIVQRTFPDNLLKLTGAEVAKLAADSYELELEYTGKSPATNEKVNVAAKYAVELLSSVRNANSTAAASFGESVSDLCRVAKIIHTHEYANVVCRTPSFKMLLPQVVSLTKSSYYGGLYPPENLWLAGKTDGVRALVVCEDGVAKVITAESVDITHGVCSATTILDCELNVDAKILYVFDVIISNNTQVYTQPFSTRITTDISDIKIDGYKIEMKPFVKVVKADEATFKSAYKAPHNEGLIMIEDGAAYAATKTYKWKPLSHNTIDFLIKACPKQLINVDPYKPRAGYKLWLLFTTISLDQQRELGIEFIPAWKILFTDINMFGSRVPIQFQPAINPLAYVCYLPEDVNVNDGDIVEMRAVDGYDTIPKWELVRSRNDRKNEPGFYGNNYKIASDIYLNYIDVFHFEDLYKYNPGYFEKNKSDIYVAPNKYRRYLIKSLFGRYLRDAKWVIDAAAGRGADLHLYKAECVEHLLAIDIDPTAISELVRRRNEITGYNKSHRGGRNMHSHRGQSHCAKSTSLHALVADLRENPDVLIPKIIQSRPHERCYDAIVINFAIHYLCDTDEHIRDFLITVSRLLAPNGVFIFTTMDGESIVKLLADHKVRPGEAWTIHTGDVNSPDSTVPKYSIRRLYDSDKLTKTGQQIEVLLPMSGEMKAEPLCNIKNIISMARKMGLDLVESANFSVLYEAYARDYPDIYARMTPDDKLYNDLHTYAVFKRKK
# [2] = target: Vaccinia capping enzyme (VCE) (Vaccinia virus) (UniProt P04298+P04318); settings: pseudouridine in place of U; 5' triphosphate; 37 C, 100 nM enzyme; larger than U counterpart
substance,measurement,setting,value
cluc/A120 transcript with pseudouridine,activity,[1],100 % capped
same,activity,[2],68.4 % capped
